Patent US20120076796A1 (Ablynx, published 2012)

Experiments:
[1] = biological target: T1, recombinant human Tie2/Fc Chimera (R&D Systems Cat No 313-TI, Lot No BKC06) (human, UniProt Q02763 23-745); assay: competition ELISA: 0.2 ug/ml Tie2/Fc pre-incubated with a dilution series of purified Nanobody, then on coated Ang1 (0.75 ug/ml); bound Tie2/Fc detected with anti-human IgG-HRP; blocked ligand: Ang1
T1 construct: Bought reagent; also called receptor; not shown: Fc portion of the bought chimera
Method: In order to determine the receptor blocking efficiency of clones tested positive for Ang1 competition, a dilution series of purified Nanobodies are tested in the ELISA-based ligand competition setup. In short, 0.75 ug/ml human. Ang1 (R&D Systems Cat No 923-AN/CF Lot No FHWO73091) is coated in 96 well Maxisorp microliter plates (Nunc) and blocked with 4% Marvel skimmed milk in PBS. In parallel, 0.2 ug/ml Tie2/Fc is incubated with a dilution series of purified Nanobodies. After 1 hour, the receptor-Nanobody pre-mixes are incubated 1 hour with the coated ligand. Bound Tie2/Fc is detected using HRP-conjugated goat anti-human IgG (Jackson Immunoresearch, Cat #109-035-098). Blocking activity is determined as loss of OD signal, as compared to wells where no P.E., or irrelevant P.E., has been added.

[2] = biological target: T2, biotinylated rh Ang2 (R&D Systems Cat No BT623, Lot No BNR174091) (human, UniProt O15123 19-496, limits assumed, biotinylated (sites not given)); assay: competition ELISA: 0.05 ug/ml biotinylated Ang2 pre-incubated with a dilution series of purified Nanobody, then on coated Tie2/Fc (4 ug/ml); bound Ang2 detected with extravidin-HRP; blocked partner: Tie2/Fc
T2 construct: Bought reagent; also called biotinylated Ang2
T2 sequence (looked up): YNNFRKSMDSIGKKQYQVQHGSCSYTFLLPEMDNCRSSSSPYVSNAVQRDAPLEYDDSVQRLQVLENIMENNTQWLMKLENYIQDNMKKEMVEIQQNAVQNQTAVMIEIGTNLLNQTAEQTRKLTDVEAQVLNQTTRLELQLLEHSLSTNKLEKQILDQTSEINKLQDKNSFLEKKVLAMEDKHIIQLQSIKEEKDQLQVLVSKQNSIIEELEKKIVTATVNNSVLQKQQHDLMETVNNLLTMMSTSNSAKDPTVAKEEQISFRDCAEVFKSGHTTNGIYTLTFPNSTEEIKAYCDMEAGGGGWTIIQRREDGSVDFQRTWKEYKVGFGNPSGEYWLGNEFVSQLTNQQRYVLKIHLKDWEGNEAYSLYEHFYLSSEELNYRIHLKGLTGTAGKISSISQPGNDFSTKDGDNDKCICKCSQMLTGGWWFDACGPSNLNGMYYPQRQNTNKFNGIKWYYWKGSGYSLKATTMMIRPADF
Method: In order to determine the receptor blocking efficiency of clones tested positive for Ang2 blocking, a dilution series of purified Nanobodies are tested in the ELISA-based ligand competition setup. In short, 4 ug/ml human Tie2/Fc Chimera (R&D Systems Cat No 313-TI, Lot No BKC06)) is coated in 96 well Maxisorp microtiter plates (Nunc) and blocked with 4% Marvel skimmed milk in PBS. In parallel, 0.05 ug/ml biotinylated rh Ang2 (R&D Systems Cat No BT623, Lot No BNR174091) is incubated with a dilution series of purified Nanobodies. After 1 hour, the biotinylated Ang2-Nanobody pre-mixes are incubated 1 hour with the coated receptor. Bound biotinylated Ang2 is detected using HRP-conjugated extravidin (SIGMA E2886-1ML, 126K4801). Blocking activity is determined as loss of OD signal, as compared to wells where no P.E., or irrelevant P.E. has been added.

[3] = biological target: T3, Recombinant human Angiopoietin-1 (R&D Systems Cat No 923-AN/CF) (human, UniProt Q15389 20-498, limits assumed); assay: phage ELISA: 10 ul monoclonal phage supernatant in 100 ul on 0.2 ug/ml coated Ang1, anti-M13-HRP, OD 450 nm
T3 construct: Bought reagent; also called Ang1; human Ang1
T3 sequence (looked up): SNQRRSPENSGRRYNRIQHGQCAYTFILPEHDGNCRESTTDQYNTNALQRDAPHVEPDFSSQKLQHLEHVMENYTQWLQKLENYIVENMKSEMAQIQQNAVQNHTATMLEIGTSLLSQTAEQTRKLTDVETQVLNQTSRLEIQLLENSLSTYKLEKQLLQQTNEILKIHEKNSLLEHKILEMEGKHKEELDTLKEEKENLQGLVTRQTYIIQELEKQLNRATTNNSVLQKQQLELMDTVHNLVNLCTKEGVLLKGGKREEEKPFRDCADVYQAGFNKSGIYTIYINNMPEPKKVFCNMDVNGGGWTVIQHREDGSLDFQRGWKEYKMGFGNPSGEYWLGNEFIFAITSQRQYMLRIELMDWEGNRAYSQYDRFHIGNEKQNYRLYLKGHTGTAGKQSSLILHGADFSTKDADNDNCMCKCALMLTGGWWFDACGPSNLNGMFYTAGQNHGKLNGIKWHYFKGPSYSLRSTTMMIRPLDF
Method: In order to determine binding specificity to Ang1, the clones are tested in an ELISA binding assay setup, using the monoclonal phage pools. Phage binding to Ang1 (R&D Systems Cat No 923-AN/CF, Lot No FHWO73091) is tested. Shortly, 0.2 ug/ml Ang1 is immobilized on Maxisorp ELISA plates (Nunc) and free binding sites are blocked using 4% Marvel skimmed milk in PBS. Next, 10 ul of supernatant from the monoclonal phage inductions of the different clones in 100 ul 2% Marvel PBS are allowed to bind to the immobilized antigen. […] Binding specificity is determined based on OD values compared to controls having received an irrelevant phage or no phage.

[4] = biological target: T1, recombinant human Tie2/Fc Chimera (R&D …); assay: phage ELISA: 10 ul monoclonal phage supernatant in 100 ul on 0.2 ug/ml coated Tie2/Fc, anti-M13-HRP, OD 450 nm
Method: In order to determine binding specificity to Tie2, the clones are tested in an ELISA binding assay setup, using the monoclonal phage pools. Phage binding to Tie2/Fc Chimera (R&D Systems Cat No 313-TI, Lot No BKC06) is tested. Shortly, 0.2 ug/ml receptor is immobilized on Maxisorp ELISA plates (Nunc) and free binding sites are blocked using 4% Marvel skimmed milk in PBS. Next, 10 ul of supernatant from the monoclonal phage inductions of the different clones in 100 ul 2% Marvel PBS are allowed to bind to the immobilized antigen. […] Binding specificity is determined based on OD values compared to controls having received no phage and to controls where in a similar ELISA binding assay the same monoclonal phage are tested for binding to 0.2 ug/ml of immobilized human IgG and 0.2 ug/ml of rh B7.2/Fc.

[5] = biological target: T4, Recombinant human Angiopoietin-2 (R&D Systems Cat No 623-AN/CF) (human, UniProt O15123 19-496, limits assumed); assay: listed in the alignment of Ang2 binding Nanobodies; assay not told for this clone
T4 construct: Bought reagent; also called Ang2; human Ang2
T4 sequence (looked up): T2 sequence (looked up)

T1 sequence (Q02763 23-745, change not shown): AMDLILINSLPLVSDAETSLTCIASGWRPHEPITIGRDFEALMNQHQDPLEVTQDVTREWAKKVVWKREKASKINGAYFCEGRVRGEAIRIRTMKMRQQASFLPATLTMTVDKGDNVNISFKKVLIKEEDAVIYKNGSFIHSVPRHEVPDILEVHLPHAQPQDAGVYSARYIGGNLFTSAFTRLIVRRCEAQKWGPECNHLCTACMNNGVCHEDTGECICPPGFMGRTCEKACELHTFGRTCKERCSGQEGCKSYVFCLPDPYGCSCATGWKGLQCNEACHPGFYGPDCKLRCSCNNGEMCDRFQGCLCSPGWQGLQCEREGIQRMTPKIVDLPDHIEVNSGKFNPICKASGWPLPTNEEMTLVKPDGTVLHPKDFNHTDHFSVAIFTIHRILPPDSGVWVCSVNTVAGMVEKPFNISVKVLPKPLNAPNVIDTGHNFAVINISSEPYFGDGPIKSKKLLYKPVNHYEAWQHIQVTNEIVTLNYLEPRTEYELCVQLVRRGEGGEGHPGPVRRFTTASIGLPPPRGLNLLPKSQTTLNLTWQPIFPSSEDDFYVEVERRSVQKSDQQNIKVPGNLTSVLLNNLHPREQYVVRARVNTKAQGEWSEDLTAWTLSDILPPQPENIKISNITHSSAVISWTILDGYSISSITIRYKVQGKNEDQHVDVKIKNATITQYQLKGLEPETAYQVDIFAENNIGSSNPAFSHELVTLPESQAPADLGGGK

B1: 162-E9 (VHH)
VHH: EVQLVESGGGLVQPGGSLRLSCAASGFTLDDYAIGWFRQAPGKEREAVSCISSVDGSTHYADSVKGRFTISRDNAKDTVYLQMNSLKPEDTAAYYCAVQGYSGGYYYTCEDSADFGFWGQGTQVTVSS
notes: Nanobody
- IC50 (read off the curve) [1]: ~3 nM

B2: 162-E1 (VHH)
VHH: EVQLVESGGGLVQAGGSLRLSCAASGSIFSINAMGWYQQAPGKQRELVAFITSVGTTNYADSVKGRFIISRDNAKNTVYLQMNSLKPEDTAVYYCAADLHYSGPNYWGQGTQVTVSS
notes: Nanobody; Footnote: q in FR2 of 162-E1 from an Amber stop codon
- IC50 (read off the curve) [1]: ~3 nM

B3: 166-H4 (VHH)
VHH: EVQLVESGGDLVQAGGSLRLSCAASGFTFGDFTIGWFRQAPGKEREGVSCINTGDGSTNYAESVKGRFTISSDNAKNTVYLQMNSLKPEDTAVYYCALDQAPMWSSWSAPYEYDYWGQGTQVTVSS
notes: Nanobody
- IC50 (read off the curve) [2]: ~4 nM

B4: 173-H9 (VHH)
VHH: EVQLVESGGGLVQPGGSLRLSCAASGFTLSGNWMYWLRQAPGKGLEWISTITPRGLTAYADSVKGRFTISRDIAENTLYLQMNSLKSGDTAVYYCARDKTGERRGQGTQVTVSS
notes: Nanobody
- binding result [3]: binds

B5: 184-B6 (VHH)
VHH: EVQLVESGGGLVQPGGSLRLSCAASGFTFSNYAMTWVRQAPGKGLEWVSDISWDGDITTYAASVKGRFTISRDNAKKTLYLQMNSLKPEDSAVYYCNTYGYDSGRYYSYWGQGTQVTVSS
notes: Nanobody
- binding result [3]: binds

B6: 185-H5 (VHH)
VHH: EVQLVESGGGLVQPGGSLRLSCAASGFTLDYYAIGWFRQAPGKEREGVSYISSSDGRTYYADSVKGRFTISRDNAKNTVYLQMNSLKPEDTAVYYCATDLSGRGDVSEYEYDYWGQGTQVTVSS
notes: Nanobody
- binding result [3]: binds

B7: 162-F3 (VHH)
VHH: EVQLVESGGGLVQAGDSLRLSCTTSGRTFSDDTMGWFRQAPRKEREFVAAILWDSIKTYYADSVKGRFTISRDNAKNTVYLQMDSLKPEDTAVYYCAATPTAYGTDWYRNNYHYWGQGTQVTVSS
notes: Nanobody
- binding result [4]: binds

B8: 166-H5 (VHH)
VHH: EVQLVESGGGLVQAGGSLSLACVVSGRFSRINSMAWSRQVPGNARELVASVTSGGYTNYVDSVKGRFTISRDNAKNAIYLQMNSLKSEDTAVYYCNARVVVRTAHGFEDNYWGQGTQVTVSS
- binding result [5]: binds
